Assay results from patent US20230272011A1 (AVACTA LIFE SCIENCES, published 2023).

B1: AVA04-251 XT15 (designed binder)
chain: MIPRGLSEAKPATPEIQEIVDKVKPQLEEKTNETYGKLEAVQYKTQVLAREGRQDWVLSTNYYIKVRAGDNKYMHLKVFNGPWVPFPHQQLADRVLTGYQVDKNKDDELTGFAEAAAKEAAAKEAAAKEAAAKEAAAKEAAAKMIPRGLSEAKPATPEIQEIVDKVKPQLEEKTNETYGKLEAVQYKTQVLANFFQRRWPGSTNYYIKVRAGDNKYMHLKVFNGPWKFRNTDRGADRVLTGYQVDKNKDDELTGFAEAAAKEAAAKEAAAKEAAAKEAAAKEAAAKMIPRGLSEAKPATPEIQEIVDKVKPQLEEKTNETYGKLEAVQYKTQVLAREGRQDWVLSTNYYIKVRAGDNKYMHLKVFNGPWVPFPHQQLADRVLTGYQVDKNKDDELTGFHHHHHH
B2: AVA04-251 BH (designed binder)
chain: MIPRGLSEAKPATPEIQEIVDKVKPQLEEKTNETYGKLEAVQYKTQVLAREGRQDWVLSTNYYIKVRAGDNKYMHLKVFNGPWVPFPHQQLADRVLTGYQVDKNKDDELTGFAEAAAKEAAAKEAAAKEAAAKEAAAKEAAAKMIPRGLSEAKPATPEIQEIVDKVKPQLEEKTNETYGKLEAVQYKTQVLAREGRQDWVLSTNYYIKVRAGDNKYMHLKVFNGPWVPFPHQQLADRVLTGYQVDKNKDDELTGFHHHHHH
notes: also called anti-PD-L1 parental ILF dimer molecule
B3: AVA04-251 XT14 (designed binder)
chain: MIPRGLSEAKPATPEIQEIVDKVKPQLEEKTNETYGKLEAVQYKTQVLAREGRQDWVLSTNYYIKVRAGDNKYMHLKVFNGPWVPFPHQQLADRVLTGYQVDKNKDDELTGFAEAAAKEAAAKEAAAKEAAAKEAAAKEAAAKMIPRGLSEAKPATPEIQEIVDKVKPQLEEKTNETYGKLEAVQYKTQVLAREGRQDWVLSTNYYIKVRAGDNKYMHLKVFNGPWVPFPHQQLADRVLTGYQVDKNKDDELTGFAEAAAKEAAAKEAAAKEAAAKEAAAKEAAAKMIPRGLSEAKPATPEIQEIVDKVKPQLEEKTNETYGKLEAVQYKTQVLANFFQRRWPGSTNYYIKVRAGDNKYMHLKVFNGPWKFRNTDRGADRVLTGYQVDKNKDDELTGFHHHHHH
B4: AVA04-251 XT14-800 (designed binder)
chain: MIPRGLSEAKPATPEIQEIVDKVKPQLEEKTNETYGKLEAVQYKTQVLAREGRQDWVLSTNYYIKVRAGDNKYMHLKVFNGPWVPFPHQQLADRVLTGYQVDKNKDDELTGFAEAAAKEAAAKEAAAKEAAAKEAAAKEAAAKMIPRGLSEAKPATPEIQEIVDKVKPQLEEKTNETYGKLEAVQYKTQVLAREGRQDWVLSTNYYIKVRAGDNKYMHLKVFNGPWVPFPHQQLADRVLTGYQVDKNKDDELTGFAEAAAKEAAAKEAAAKEAAAKEAAAKEAAAKMIPRGLSEAKPATPEIQEIVDKVKPQLEEKTNETYGKLEAVQYKTQVLANFFQRRWPGSTNYYIKVRAGDNKYMHLKVFNGPWKFRNTDRGADRVLTGYQVDKNKDDELTGFC
modifications: IRDye 800CW conjugated with maleimide chemistry (C-terminal cysteine construct)
B5: AVA04-251 XT14-Cys (designed binder)
single chain: B4 chain

Tests used:
[1] = molecular target: T1, human serum albumin (human, UniProt P02768 25-609); assay: binding ELISA on coated HSA, pH 7.4
T1 construct: mature; Bought protein; biotinylated in the Octet and HTRF assays; also called HSA; HuSA
Description: After saturation with 5% PBS Casein pH 7.5, plates were washed and a dilution of AFFIMER® polypeptides or controls were incubated for 90 minutes. Plates were then washed, and a biotinylated polyclonal antibody anti-cystatin A (R&D Systems) was added for 1 hour. Plates were washed and AFFIMER® polypeptides were detected using streptavidin-HRP. After a last washing step, TMB was added for the development of the experiment and the plates were read at 450 nm.

[2] = molecular target: T2, human PD-L1-Fc (R&D Systems) chimeric protein (human, UniProt Q9NZQ7 19-239); assay: SPR (Biacore), immobilised rhPD-L1-Fc, Affimer analyte
T2 construct: Bought reagent; also called rhPD-L1-Fc; huPD-L1; Fc part of the bought chimera not given, not described
T2 sequence (Q9NZQ7 19-239, change not shown): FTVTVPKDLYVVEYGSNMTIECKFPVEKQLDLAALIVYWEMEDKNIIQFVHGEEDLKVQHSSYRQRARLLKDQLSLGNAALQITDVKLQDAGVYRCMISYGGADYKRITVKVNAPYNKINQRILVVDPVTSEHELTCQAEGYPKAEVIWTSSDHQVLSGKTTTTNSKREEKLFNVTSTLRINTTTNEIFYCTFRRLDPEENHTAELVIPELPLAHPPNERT
Description: ILF dimer production from E. coli was performed as described in Example 3. Briefly, protein was purified using three stages: affinity capture, IEX, and preparative SEC. […] To analyze PD-L1-Fc binding kinetics, a Biacore T200 kinetic analysis was performed using running buffer HBS-EP+ and series S sensor CM5 (GE Healthcare) chip Fc2 immobilized with PD-L1-Fc (R&D Systems) in 10 mM sodium acetate pH 4.0 using amine coupling reagents (GE Healthcare). The concentration titration of ILF AFFIMER® polypeptides was run as analyte at a flow rate of 30 μl/min. […] with 3 mM NaOH (GE healthcare) for 20 seconds at 20 μl/min flow rate. The Fc2-1 data blank was subtracted and fit to a 1:1 Langmuir binding model (Biacore evaluation software; GE) to calculate an apparent KD value.
ILF production in E. coli was performed as described in Example 3 using protein purified using affinity capture, IEX, and preparative SEC. Protein purity was assessed using SDS-PAGE and SEC-HPLC.

[3] = molecular target: T2, human PD-L1-Fc (R&D Systems) chimeric …; assay: binding ELISA on coated human PD-L1-Fc (table on the sheet is headed 'IC50 (nM)'; the text calls these values EC50)
Description: Briefly, human PD-L1-Fc (R&D Systems) chimeric protein was coated on 96 well plates at […] in carbonate buffer. After saturation with 5% casein/PBS buffer, the plates were washed and a dilution of AFFIMER® polypeptides or controls were incubated for 90 minutes. Plates were then washed and a biotinylated polyclonal antibody anti-cystatin A (R&D Systems) was added for 1 hour. Plates were washed and AFFIMER® polypeptides were detected using streptavidin-HRP. After a last washing step, TMB was added for the development of the experiment and plates were read at 450 nm.

[4] = molecular target: T1, human serum albumin; assay: SPR (Biacore), immobilised HSA, Affimer analyte
Description: Affinities for mouse, human, and cynomolgus serum were also measured at pH 7.4 for four (4) AFFIMER® binders using surface plasmon resonance (SPR) (FIG. 5, Table 5). […] A concentration titration of AFFIMER® monomers was run as analyte at a flow rate of 30 μl/min or 60 μl/min. Fc2-1, Fc3-1 and Fc4-1 kinetic data was blank subtracted and fit to a 1:1 Langmuir binding model (BIAcore Evalution software; GE) to calculate KD values. […]

[5] = molecular target: human PD-L1 (PD-1/PD-L1 blockade Bioassay, Promega) (human, UniProt Q9NZQ7 19-290, limits assumed); assay: cell-based or functional assay
Chain of human PD-L1 (PD-1/PD-L1 blockade Bioassay, Promega) (Q9NZQ7 19-290 limits assumed): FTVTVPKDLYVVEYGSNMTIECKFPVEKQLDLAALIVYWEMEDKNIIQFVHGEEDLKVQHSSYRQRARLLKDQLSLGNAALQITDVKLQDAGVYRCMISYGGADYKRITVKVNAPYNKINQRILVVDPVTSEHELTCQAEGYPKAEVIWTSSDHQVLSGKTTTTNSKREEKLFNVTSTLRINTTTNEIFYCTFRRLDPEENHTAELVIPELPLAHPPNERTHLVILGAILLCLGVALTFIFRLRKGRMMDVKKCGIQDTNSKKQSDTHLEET

[6] = molecular target: T2, human PD-L1-Fc (R&D Systems) chimeric …; assay: Biacore single cycle kinetics on human PD-L1 Fc
[7] = molecular target: T2, human PD-L1-Fc (R&D Systems) chimeric …; assay: binding ELISA on coated human PD-L1 Fc ('Anti-PD-L1 ELISA')
Description: Briefly, human PD-L1 Fc (R&D Systems) chimeric protein was coated onto 96 well plates at 0.5 μg/mL in carbonate buffer. After saturation with 5% casein/PBS buffer, plates were washed and a dilution of conjugated AFFIMER® polypeptide or unconjugated control were incubated for 90 minutes. Plates were then washed, a biotinylated polyclonal anti-cystatin A antibody (R&D Systems) added, and the plates incubated for 1 hour. Plates were washed and bound AFFIMER® polypeptide was detected using streptavidin-HRP. After a last washing step, TMB was added and the plate was read at 450 nm.

Row | Binder | EC50 [1] | Kd [2] | koff [2] | kon [2] | EC50 [3] | Kd [4] | koff [4] | kon [4] | IC50 as headed on the sheet (EC50); PD-1/PD-L1 blockade Bioassay (Promega), fold change relative to assay buffer [5] | Kd [6] | koff [6] | kon [6] | EC50 (read off the curve) [7]
1 | B1 | 0.039 nM | 0.704 nM | 0.000607 s⁻¹ | 863000 M⁻¹ s⁻¹ | 0.064 nM | 5.2 nM | 0.0029 s⁻¹ | 557000 M⁻¹ s⁻¹ | 434 nM | – | – | – | –
2 | B2 | – | 1.71 nM | 0.00129 s⁻¹ | 752000 M⁻¹ s⁻¹ | 0.03 nM | – | – | – | 893 nM | – | – | – | –
3 | B3 | 0.062 nM | 0.504 nM | 0.00042 s⁻¹ | 834000 M⁻¹ s⁻¹ | 0.033 nM | 8.75 nM | 0.00282 s⁻¹ | 322000 M⁻¹ s⁻¹ | 176 nM | 0.307 nM | 0.000277 s⁻¹ | 903000 M⁻¹ s⁻¹ | –
4 | B4 | – | – | – | – | – | – | – | – | – | – | – | – | ~0.02 nM
5 | B5 | – | – | – | – | – | – | – | – | – | – | – | – | ~0.02 nM
